Experimental findings from PMC5859253 are described below.

Common to all, as to assay: EMSA
What all share (conditions): HilD/H-NS EMSA: 10 mM Tris-HCl pH 8, 50 mM KCl, 1 mM DTT, 0.5 mM EDTA, 5% glycerol, 10 ug/ml BSA, ~100 ng DNA, RT 20 min; PhoP EMSA: 20 mM Tris-HCl pH 7.4 …
For orientation: In EMSA bound probe runs differently from free probe, usually more slowly.

One data set concerns PhoP-H6 (phosphorylated).
The test system of data set [1] is H-NS-FH (H-NS-3XFLAG-6XHis) (Escherichia coli EPEC E2348/69).
Data set [2] concerns MBP-HilD (Salmonella enterica serovar Typhimurium SL1344?).

Turning to ges promoter, the binding with PhoP-H6 (phosphorylated) was more than 6 µM.

In the data set with PhoP-H6 (phosphorylated), grhD1 promoter (PhoP EMSA) displayed a binding of 3 µM. As to grhD1 upstream region (HilD/H-NS EMSA), the values for the binding in data set [1] and in data set [2] were 0.5 µM and more than 1 µM, respectively.

For orgB promoter, the binding in the data set with PhoP-H6 (phosphorylated) worked out at 3 µM. For sigD regulatory region, the binding in data set [1] and in data set [2] was more than 1 µM in each case. As to ssrAB regulatory region, the binding in data set [1] amounted to 0.25 µM.
